Values quoted from earlier work as cited in patent EP4725499A1, “M[…] PROTEIN FOR IMM[…] ALZHEIMER'S DISEASE” (Centro De Neurociencias De Cuba, priority 2023, dated 2024).

Molecular target: Aβ (Homo sapiens, UniProt P05067)
Sequence (P05067 672-713 limits assumed): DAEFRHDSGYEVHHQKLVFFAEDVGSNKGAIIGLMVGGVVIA

AN1792: AN1792 vaccine, consisting of a synthetic Aβ1-42 peptide
time after which responders maintained an anti-AN-1792 antibody response (follow-up of responders, 1-3 injections, low titers): approximately 4.6 years
patients who developed an anti-Aβ antibody response (patients with mild to moderate AD, phase II): 19.7%
progression of cognitive decline (responders compared with placebo-treated patients, follow-up): significantly reduced
